In patent US20240262905A1 (PANDION OPERATIONS, published 2024):

Assays:
human DSG-3 [1] = target: T1, human DSG-3 (human, UniProt P32926 50-615, limits assumed); assay: bridging ELISA, plate coated with hDSG-3, test article at 1 nM, then his-tagged hCD25 1 ug/mL, anti-His-HRP detection
T1 construct: Soluble analyte (Octet) and plate coat (ELISA); also called hDSG-3
T1 sequence (looked up): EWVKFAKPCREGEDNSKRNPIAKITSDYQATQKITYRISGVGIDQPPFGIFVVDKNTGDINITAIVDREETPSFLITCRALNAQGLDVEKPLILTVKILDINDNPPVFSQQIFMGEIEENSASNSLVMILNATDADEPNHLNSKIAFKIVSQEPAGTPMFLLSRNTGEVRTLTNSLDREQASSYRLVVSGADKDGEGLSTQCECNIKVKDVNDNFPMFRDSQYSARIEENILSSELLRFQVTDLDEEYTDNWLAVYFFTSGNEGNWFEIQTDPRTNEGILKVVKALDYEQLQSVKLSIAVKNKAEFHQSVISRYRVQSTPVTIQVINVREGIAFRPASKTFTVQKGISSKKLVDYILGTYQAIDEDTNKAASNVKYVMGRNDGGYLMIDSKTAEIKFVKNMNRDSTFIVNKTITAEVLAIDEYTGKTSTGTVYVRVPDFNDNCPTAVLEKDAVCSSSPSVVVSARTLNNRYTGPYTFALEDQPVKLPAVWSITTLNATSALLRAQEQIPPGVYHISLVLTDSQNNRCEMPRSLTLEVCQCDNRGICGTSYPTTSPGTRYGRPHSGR

human CD25 = target: T2, human CD25 (human, UniProt P01589 22-213, limits assumed); assay: BLI (Octet), test article captured on anti-human Fc biosensors, 1:1 global fit (method text names desmogleins as analyte; result told for human CD25)
T2 construct: construct not described
T2 sequence (looked up): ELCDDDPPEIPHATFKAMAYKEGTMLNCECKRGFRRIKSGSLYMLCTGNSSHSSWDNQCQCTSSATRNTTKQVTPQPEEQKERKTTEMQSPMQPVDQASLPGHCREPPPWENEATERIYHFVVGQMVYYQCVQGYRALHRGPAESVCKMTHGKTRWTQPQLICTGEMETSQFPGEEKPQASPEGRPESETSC

human DSG-3 [2] = target: T1, human DSG-3; assay: bridging ELISA, plate coated with hDSG-3, test article at 100 nM, then his-tagged hCD25 1 ug/mL, anti-His-HRP detection
human DSG-3 [3] = target: T1, human DSG-3; assay: bridging ELISA, plate coated with hDSG-3, test article at 10 nM, then his-tagged hCD25 1 ug/mL, anti-His-HRP detection

Binder	absorbance (OD450 nm) (human DSG-3 [1])	Kd (human CD25)	absorbance (OD450 nm) (human DSG-3 [2])	absorbance (OD450 nm) (human DSG-3 [3])
IL2DSGAB5 (other, SD1 anti-desmoglein human IgG1 with the IL-2 mutein fused to the C-terminus of the light chain; also called TL2DSGAB5) heavy: QVQLQESGPGPVKPSGTLSLTCGVSGGSISSNHWWTWVRQPPGKGLEWIGEIYHNGSTFLNPSLKSRVTISVDKSNNQFSLKLTSVTAADTAVYYCARGWHRTGFRGYPSHWYFDLWGRGTLVSVSSASTKGPSVFPLAPSSKSTSGGTAALGCLVKDYFPEPVTVSWNSGALTSGVHTFPAVLQSSGLYSLSSVVTVPSSSLGTQTYICNVNHKPSNTKVDKKVEPKSCDKTHTCPPCPAPEAAGAPSVFLFPPKPKDTLMISRTPEVTCVVVDVSHEDPEVKFNWYVDGVEVHNAKTKPREEQYNSTYRVVSVLTVLHQDWLNGKEYKCKVSNKALPAPIEKTISKAKGQPREPQVYTLPPSREEMTKNQVSLTCLVKGFYPSDIAVEWESNGQPENNYKTTPPVLDSDGSFFLYSKLTVDKSRWQQGNVFSCSVMHEALHNHYTQKSLSLSPG light: not shown	0.27	3.4 nM	0.965	0.483
IL2DSGAB8 (other) heavy: QVQLVQSGGGVVQSGRSLRLSCAASGFTFSDYAMHWVRQAPGKGLEWVAVISHGGTKKYTGDSVKGRFIISRDNSKNTVFLQMNSLRVEDTAVYYCARDRVEGYVWGGTFDHWGQGTPVTVSSASTKGPSVFPLAPSSKSTSGGTAALGCLVKDYFPEPVTVSWNSGALTSGVHTFPAVLQSSGLYSLSSVVTVPSSSLGTQTYICNVNHKPSNTKVDKKVEPKSCDKTHTCPPCPAPEAAGAPSVFLFPPKPKDTLMISRTPEVTCVVVDVSHEDPEVKFNWYVDGVEVHNAKTKPREEQYNSTYRVVSVLTVLHQDWLNGKEYKCKVSNKALPAPIEKTISKAKGQPREPQVYTLPPSREEMTKNQVSLTCLVKGFYPSDIAVEWESNGQPENNYKTTPPVLDSDGSFFLYSKLTVDKSRWQQGNVFSCSVMHEALHNHYTQKSLSLSPG light: ELVLTQPPSVPVAPGQTANISCGGNNIGRQTVHWYQQKPGQAPVLVVFDDSDRPAGIPERFSGSNSGNTATLTISRVEAGDEADYYCQVWDSSSDHVVFGGGTQLTVLGQPKAAPSVTLFPPSSEELQANKATLVCLISDFYPGAVTVAWKADSSPVKAGVETTTPSKQSNNKYAASSYLSLTPEQWKSHRSYSCQVTHEGSTVEKTVAPTECSAEEEKAEEEKAEEEKAEEEKAPTSSSTKKTQLQLEHLLLDLQMILNGINNYKNPKLTRMLTFKFYMPKKATELKHLQCLEEELKPLEEALNLAPSKNFHLRPRDLISDINVIVLELKGSETTFMCEYADETATIVEFINRWITFSQSIISTLT	0.29	3.5 nM	1	0.41
